Source: US12304944

Key:
[1] = tested on: hFIX R338L (codon-optimized human factor IX carrying the R338L mutation)
[2] = tested on: hFIX R338L-2Fc (codon-optimized human factor IX R338L, XIa-cleavable linker, IgG1 Fc, 3xGGGS linker, IgG1 Fc)
hFIX R338L-2Fc (codon-optimized human factor IX R338L, XIa-cleavable linker, IgG1 Fc, 3xGGGS linker, IgG1 Fc), sequence (chain, as listed by the source R338L R338L): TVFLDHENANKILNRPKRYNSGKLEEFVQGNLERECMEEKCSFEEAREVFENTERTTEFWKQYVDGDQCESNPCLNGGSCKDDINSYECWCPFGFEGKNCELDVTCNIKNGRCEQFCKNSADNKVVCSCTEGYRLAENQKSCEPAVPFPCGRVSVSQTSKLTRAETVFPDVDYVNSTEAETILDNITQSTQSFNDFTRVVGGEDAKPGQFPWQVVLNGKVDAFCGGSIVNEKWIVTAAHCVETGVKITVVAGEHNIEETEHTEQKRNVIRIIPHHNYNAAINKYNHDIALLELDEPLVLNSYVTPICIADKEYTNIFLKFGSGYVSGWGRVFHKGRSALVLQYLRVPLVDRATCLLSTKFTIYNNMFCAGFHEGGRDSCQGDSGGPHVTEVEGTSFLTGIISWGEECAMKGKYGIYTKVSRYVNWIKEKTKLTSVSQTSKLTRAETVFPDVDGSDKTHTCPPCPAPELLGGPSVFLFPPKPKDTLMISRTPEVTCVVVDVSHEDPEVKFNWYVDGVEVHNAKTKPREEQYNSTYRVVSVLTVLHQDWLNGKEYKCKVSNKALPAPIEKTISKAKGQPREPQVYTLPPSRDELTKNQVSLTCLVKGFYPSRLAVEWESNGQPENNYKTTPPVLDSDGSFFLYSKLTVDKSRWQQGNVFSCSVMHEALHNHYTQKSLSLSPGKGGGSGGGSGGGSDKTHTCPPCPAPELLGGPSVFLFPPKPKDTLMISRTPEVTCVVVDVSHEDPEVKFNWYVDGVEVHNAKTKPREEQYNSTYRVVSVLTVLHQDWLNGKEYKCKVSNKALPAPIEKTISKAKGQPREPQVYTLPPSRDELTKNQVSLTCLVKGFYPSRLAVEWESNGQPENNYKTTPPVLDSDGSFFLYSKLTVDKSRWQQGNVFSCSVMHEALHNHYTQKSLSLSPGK

hFIX R338L (codon-optimized human factor IX carrying the R338L mutation), sequence (chain, as listed by the source R338L R338L): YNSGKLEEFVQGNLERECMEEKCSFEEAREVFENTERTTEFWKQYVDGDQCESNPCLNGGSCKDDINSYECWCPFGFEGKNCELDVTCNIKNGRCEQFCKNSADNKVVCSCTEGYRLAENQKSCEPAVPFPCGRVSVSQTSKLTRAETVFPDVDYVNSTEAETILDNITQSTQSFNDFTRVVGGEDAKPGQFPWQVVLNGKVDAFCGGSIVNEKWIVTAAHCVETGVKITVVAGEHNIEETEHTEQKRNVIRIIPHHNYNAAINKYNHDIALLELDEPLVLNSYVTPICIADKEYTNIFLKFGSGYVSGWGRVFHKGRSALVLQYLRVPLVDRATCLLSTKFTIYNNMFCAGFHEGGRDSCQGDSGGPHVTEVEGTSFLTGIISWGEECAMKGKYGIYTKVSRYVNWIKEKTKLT

Q: For activated factor XI (XIa), which “cleavage by XIa, western blot of conditioned media treated or not with XIa” value [1] is on record?
A: Only low levels of partial XIa cleavage of media derived unpurified hFIX could be observed

Q: What about the “cleavage by XIa, western blot of conditioned media treated or not with XIa” value [2] of the same substance?
A: Only low levels of partial XIa cleavage of media derived unpurified hFIX could be observed

Q: And the “processing by XIa in vitro” value [2]?
A: its translated protein was efficiently processed by XIa
